# From patent US20250388669A1 (published 2025)
# B1: Ly2367 (other)
# chain 1: QVQLVQSGAEVKKPGASVKVSCKASGYTFTSYVMHWVRQKPGQGLEWIGYINPYNEGTESTDKFKGRATMTSDKSTSTVYMELSSLRSEDTAVYYCASIYYGYEGTYFGVWGQGTLVTVSSASTKGPSVFPLAPSSKSTSGGTAALGCLVKDYFPEPVTVSWNSGALTSGVHTFPAVLQSSGLYSLSSVVTVPSSSLGTQTYICNVNHKPSNTKVDKKVEPKSCGGGGSEVQLVESGGGLVQPGGSLRLSCAASGFTFSTYAMNWVRQAPGKGLEWVGRIRSKYNNYATYYADSVKGRFTISRDDSKNSLYLQMNSLKTEDTAVYYCVRHGNFGNSYVSWFAYWGQGTLVTVSSGGGGSDKTHTCPPCPAPEAAGPSVFLFPPKPKDTLMISRTPEVTCVVVDVSHEDPEVKFNWYVDGVEVHNAKTKPREEQYNSTYRVVSVLTVLHQDWLNGKEYKCKVSNKALPAPIEKTISKAKGQPREPQVYTLPPSREEMTKNQVSLWCLVKGFYPSDIAVEWESNGQPENNYKTTPPVLDSDGSFFLYSKLTVDKSRWQQGNVFSCSVMHEALHNHYTQKSLSLSPGGGGGSGGGGSGGGGSGGGGSQVQLVQSGAEVKKPGASVKVSCKASGYTFAGFEMHWVRQAPGQGLEWMGAIDPKTGGTDYNQKFKDRVTMTRDTSISTAYMELSRLRSDDTAVYYCARDLGYFDVWGQGTLVTVSS
# chain 2: QVQLVQSGAEVKKPGASVKVSCKASGYTFTSYVMHWVRQKPGQGLEWIGYINPYNEGTESTDKFKGRATMTSDKSTSTVYMELSSLRSEDTAVYYCASIYYGYEGTYFGVWGQGTLVTVSSASTKGPSVFPLAPSSKSTSGGTAALGCLVKDYFPEPVTVSWNSGALTSGVHTFPAVLQSSGLYSLSSVVTVPSSSLGTQTYICNVNHKPSNTKVDKKVEPKSCGGGGSQAVVTQEPSLTVSPGGTVTLTCRSSTGAVTTSNYANWVQQKPGQAPRGLIGGTNKRAPWTPARFSGSLLGGKAALTITGAQAEDEADYYCALWYSNLWVFGGGTKLTVLGGGGSDKTHTCPPCPAPEAAGPSVFLFPPKPKDTLMISRTPEVTCVVVDVSHEDPEVKFNWYVDGVEVHNAKTKPREEQYNSTYRVVSVLTVLHQDWLNGKEYKCKVSNKALPAPIEKTISKAKGQPREPQVYTLPPSREEMTKNQVSLSCAVKGFYPSDIAVEWESNGQPENNYKTTPPVLDSDGSFFLVSKLTVDKSRWQQGNVFSCSVMHEALHNRFTQKSLSLSPGGGGGSGGGGSGGGGSGGGGSDIQMTQSPSSLSASVGDRVTITCRASQDIRSNLNWYQQKPGGAVKLLIYYTSRLHSGVPSRFSGSGSGTDYTLTISSLQPEDFATYFCQQSEKLPRTFGGGTKVEIR
# light: EIVLTQSPATLSLSPGERATLSCRASSSVSYMHWYQQKPGQAPRPWIYATSNLASGIPARFSGSRSGTDYTLTISSLEPEDFAVYYCQQWSSNTLTFGGGTKVEIKRTVAAPSVFIFPPSDEQLKSGTASVVCLLNNFYPREAKVQWKVDNALQSGNSQESVTEQDSKDSTYSLSSTLTLSKADYEKHKVYACEVTHQGLSSPVTKSFNRGEC
# notes: Tri-specific antibody: B7H3 Fabs, central CD3 Fv, terminal CD137 Fv; Flexible linker is G4S
# Biological target: T1, B7H3 (human, UniProt Q5ZPR3 29-466, limits assumed)
# T1 sequence (looked up): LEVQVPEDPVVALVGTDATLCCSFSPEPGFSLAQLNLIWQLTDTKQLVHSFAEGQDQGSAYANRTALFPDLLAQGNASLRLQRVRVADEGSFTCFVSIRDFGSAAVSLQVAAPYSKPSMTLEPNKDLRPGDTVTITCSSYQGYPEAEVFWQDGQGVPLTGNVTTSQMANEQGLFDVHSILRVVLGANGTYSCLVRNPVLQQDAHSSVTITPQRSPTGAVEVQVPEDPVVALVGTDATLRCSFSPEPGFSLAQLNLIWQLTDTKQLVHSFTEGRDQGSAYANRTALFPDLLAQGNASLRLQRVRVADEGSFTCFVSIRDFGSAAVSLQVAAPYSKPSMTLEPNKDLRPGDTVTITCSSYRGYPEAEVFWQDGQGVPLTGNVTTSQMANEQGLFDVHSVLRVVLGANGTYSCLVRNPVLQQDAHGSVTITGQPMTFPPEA
# Experiment: ELISA or FCM (Example 2)
binder,measurement,value
B1,binding result,binds
